Measurements reported in PMC8141644 (2021).
Like-named read-outs stand apart in the source and are kept apart here.

B1: dFEB4-1 (antibody, V domains shown)
VH: AVTLDESGGGLQTPGGALSLVCKASGFTFSSHGMLWVRQAPGKGLEFVAGISTDGSSTSYGAPVKGRATISRDNGQSTVRLQLNNLRAEDTGTYYCAKDAYRCRNCAEDIDAWGHGTEVIVSS
VL: ALTQPSSVSANPGETVKITCSGGGYDGSYYYGWYQQKSPGSAPVTVIYDNTNRPSNIPSRFSGSLSGSTNTLTITGVQAEDEAVYFCGGYDRSGGIFGGGTTLTVL
B2: FEB4 (antibody, V domains shown)
VH: B1 VH
VL: ALTQPSSVSANPGETVKITCSGGYSDDGSYYYYGWFQQKSPGSAPVTVIYDNTNRPSNIPSRFSGSTSGSTSTLTITGVRAEDEAVYYCGSIDTGYAGIFGAGTTLTVL

What was measured:
EGFR-ECD [1] = target: T1, EGFR-ECD (UniProt P00533 25-645); experiment: BLI
EGFR-ECD [2] = target: T1, EGFR-ECD; experiment: BLI; remark: listed apart in the source

| Binder | Kd (EGFR-ECD [1]) [nM] | Kd (EGFR-ECD [2]) [nM] |
| --- | --- | --- |
| B1 | 3.7 |  |
| B2 |  | 29.3 |
